We go through 3 molecules from patent publication US20240350669A1, “INHIBITION OF KYNURENINE SYNTHESIS AND/OR SIGNALING TO TREAT LEUKEMIA AND MYELODYSPLASIA” (THE TRUSTEES OF COLUMBIA UNIVERSITY IN THE CITY OF NEW YORK, priority 2022, published 2024).

The test system of one data set is IDO1. The data set can be described thus: CRISPR/Cas9 Ido1 editing of primary murine MLL/AF9 cells. In kind it is cell-based, mouse. The following applies: Ido1 exon 3, MLL/AF9 cells. The procedure:
(§1) The chemically modified sgRNAs targeting IDO1 were obtained and designed with at least 3 mismatches to decrease possible off target effects with the Synthego CRISPR design tool or the CRISPOR. […] In addition, lack of random effects due to TP53 activation, was shown by p16 and p21 mRNA level assessment in Cas9-only controls as well as in all the sgRNAs used. For 10^6 cells, 3 μg of TrueCut Cas9 protein V2 (Invitrogen) and 1.5 μg sgRNA were mixed in either SE (immortalized cell lines WEHI-3B and OCI-AML3) or P3 (primary mouse MLL/AF9 or patient-derived AML cells) buffer (Lonza, Amaxa X-Nucleofector Kit) and incubated 10 mins. Cells were then resuspended in their respective nucleofection buffer, mixed with the Cas9/sgRNA RNP complex or the Cas9 only as control, and electroporated with the Lonza 4D-Nucleofector (program DZ100, CM137 or DI100). After electroporation, cells were cultured in their respective media at 37° C. until sequencing analysis and/or injection. The editing efficiency data, indel contribution and Sanger sequence analyses were performed with the Synthego Performance Analysis, ICE Analysis. 2019. v2.0. (Synthego).

The subject of the next data set is MLL/AF9 cells. The data set is described as follows: Transplant of Ido1-edited MLL/AF9 cells into WT non-irradiated recipients. In kind it is in vivo, mouse. The settings on record: exon-3-edited MLL/AF9 cells versus Cas9-only.
Data set [1] relates to WEHI-3B. The data set can be described thus: Transplant of Ido1-edited WEHI-3B cells into mice. In kind it is in vivo, mouse. The following applies: edited WEHI-3B cells versus Cas9-only. The procedure:
All leukemia models were introduced by intravenous (i.v.) injection and transplanted into non-irradiated secondary recipient experimental animals. BALB/c mice were used for the WEHI-3B leukemia model (0.5×10^6/cells/mouse) and C57BL/6J mice for MLL/AF9-dsRed (0.2×10^6/cells/mouse). Leukemia progression was assessed by fluorescence (MLL/AF9 dsRed) using the IVIS-Spectrum Optical Imaging System (Caliper, Perkin Elmer). Mice were shaved to reduce light attenuation.
as §1, with “After electroporation, cells were cultured in their respective media at 37° C. until sequencing analysis and/or injection. The editing efficiency data, indel contribution and Sanger sequence analyses were performed with the Synthego Performance Analysis, ICE Analysis. 2019. v2.0. (Synthego).” left out

Data set [2] concerns WEHI-3B. The data set is described as follows: WST-8 proliferation of mouse WEHI-3B AML cells exposed to SAA3. In kind it is cell-based. The following applies: SAA3 1 μg/ml, 24-72 h, versus vehicle.
A further data set has as its system WEHI-3B cells. The data set can be described thus: Ido1 mRNA in WEHI-3B cells exposed to recombinant SAA. It counts as cell-based, mouse. The following applies: o/n treatment. On the procedure: (§2) Treatments with recombinant proteins: human IL-1α, IL-1β, IL-6, IL-33, IL-34, CXCL1, CXCL3, CXCL5, CXCL8, CCL2, CCL20, Apo-SAA1 (all from Peprotech) and recombinant mouse SAA3 (Cusabio) were performed by o/n treatment with 50 ng/ml of the corresponding protein. SAA1 treatment of human AML cell lines was done with 1 μg/ml for 24, 48 or 72 h. Treatment of primary human MDS or AML lineage-depleted BM-MNCs was done with 5 μg/ml for 24 h. Treatment of PDX isolated human total BM cells was done with 1 μg/ml for 24 h.
(§3) RNA isolation, cDNA preparation and real-time PCR analyses were carried out following standard protocols. Total RNA from cortical bone (clean, flushed femurs, were centrifugated 20 seconds at 10.000 g's to remove any remaining BM) was extracted using TRIzol (Invitrogen) followed by RNA clean-up using PureLink RNA Mini Kit (Ambion, Invitrogen). mRNA was reversed transcribed using random hexamers RNA-to-cDNA kit (Takara). Specific forward and reverse primers were used in conjunction with PowerUp SYBR Green Master Mix (Applied Biosystems) for quantitative PCR. Expression levels were analyzed using the 2^−ΔΔCt method and were normalized for the expression of the housekeeping gene Hprt unless otherwise stated.

Another data set concerns human AML cell lines. The data set can be described thus: WST-8 proliferation of human AML cell lines exposed to SAA1. In kind it is cell-based. The settings on record: SAA1 1 μg/ml, 24-72 h, versus vehicle. The procedure: as §2
(§4) Cell proliferation was performed by using Cell Counting Kit 8 (WST-8, Abcam) as per manufacturer's instructions. Briefly, 0.03×10^6 cells were seeded on tissue-culture clear bottom microplates (Corning) in their corresponding media (100 μl). When indicated, cells were treated with the indicated compounds and for the indicated time points. 10 μl/well of WST-8 solution was added and incubated for 2 h at 37° C. before measuring absorbance at 460 nm. For each experiment, the absorbance of the blank wells (growth media and vehicle/treatment) was subtracted from the values for those wells with cells.
In vitro: the indicated cell lines were incubated in reduced-serum media and exposed to SAA1 (1 μg/ml) for the 24-72 h as indicated.

Another data set relates to AML and MDS BM MNCs. The data set is described as follows: Ex vivo lineage-depleted AML and MDS patient BM MNCs exposed to SAA1. In kind it is cell-based, human. The settings on record: SAA1 5 μg/ml, 24 h. On the procedure:
as §2, §4
Ex vivo primary AML and MDS patient's samples: MNCs from fresh BM patients' aspirates were isolated as previously described and depleted from mature hematopoietic cells (lineage Cell Depletion Kit, Miltenyi Biotec Cat #130-092-211). […]

Data set [3] relates to human BM cells from PDX healthy or PDX AML mice. The data set can be described thus: Ex vivo total human BM cells isolated from PDX mice exposed to SAA1. It counts as cell-based. The following applies: SAA1 1 μg/ml, 24 h. On the procedure:
as §2, §4
Ex vivo xenografts (healthy CD34^+ versus patient-derived AML): total BM from NSGS mice was depleted of mouse cells with mouse CD45 magnetic beads (Miltenyi Biotec Cat #130-052-301, RRID: AB_2877061) and negatively selected human cells used.

Another data set concerns OCI-AML3 cells. The data set can be described thus: IDO1 mRNA in OCI-AML3 cells exposed to recombinant osteoblast-secreted molecules. It counts as cell-based, human. The following applies: o/n treatment, 50 ng/ml. On the procedure:
as §2, §3

The subject of data set [4] is leukemic blasts (hCD45+CD33+). The data set is described as follows: In vivo SAA1 treatment of PDX mice, Edu cell cycle analysis of leukemic blasts. Details: species or system mouse. The procedure: SAA1 (Peprotech Cat #300-53) treatment: for short-term treatment (2 days), mice were injected intra venous (i.v.) 72 h and 48 h before harvesting. For long-term treatment (8-days), mice received daily i.v. injections. In order to get the same SAA1 concentration in blood that the one used in vitro, we used a dosage of 100 μg/kg of SAA1, diluted in 0.9% NaCl. Assuming a 20 g body weight, 2 ml total blood volume, and an even distribution in the mouse, systemic concentration of SAA1 should be approximately 1 μg/ml.
4-6 weeks old NSG (CDX model) or NSGS (PDX model) mice were pre-conditioned with sublethal (1.4 Gy) total-body irradiation. 24 h after, 1×10^6 OCI-AML3 or 2×10^5 human BM CD34^+ (healthy) or primary AML patient samples were injected i.v. Engraftment levels were monitored and mice were randomized after BM aspiration 3-4 weeks later and immunophenotyped by the presence of mCD45 (BioLegend Cat #103133, RRID: AB_10899570), hCD45 (BioLegend Cat #368512, RRID: AB_2566372), hCD33 (BioLegend Cat #303404, RRID: AB_314348), hCD34 (BioLegend Cat #343518, RRID: AB_1937203) cell populations. For the low-burden PDX model (kynurenine injections), mice were treated 1 week after transplant.
Cell labelling was done by i.p. injection of mice with 50 mg/kg of freshly prepared 5-Ethynyl-2′-deoxyuridine-Edu-(Cayman Chemical Company Cat #20518). After 3-4 h, BM was harvested, and human cells were negatively selected by mouse cell depletion using mouse CD45 magnetic beads (Miltenyi). The human BM cells were then stained CD45 and CD33 to identify the leukemic blast. Cell cycle/proliferation analysis was performed using the Click-iT Plus EdU Flow Cytometry Assay Kit (Invitrogen, Cat #C10420) following manufacturers' instructions. Fixable viability dye (Biolegend) was used to discriminate the death population. Single color controls were used to set compensations and fluorescence minus one control were used to set gates. Analysis was performed with FlowJo software.

Data set [5] has as its system human AML and MDS cell lines. The data set is described as follows: mRNA levels in human AML and MDS cell lines exposed to SAA1. It counts as cell-based. On the procedure:
as §2, §3

Setting [6] is: SAA1 i.v., 2- and 8-day treatments.

Molecule “sgRNA #146: mouse sgRNA targeting Ido1 exon 3: CGCCAUGGUGAUGUACCCCA GGG (guide CGCCAUGGUGAUGUACCCCAGGG; listed as RNA, chemistry not fully specified)” showed a deletion efficiency with IDO1 of about 56%. Further, the disease progression entry in the data set on MLL/AF9 cells was “abrogated”. Moreover, in the data set with WEHI-3B [1], the survival entry is “significant increased survivals”.

B1: SAA3: recombinant mouse SAA3 (Cusabio), murine orthologue of SAA1 (protein, UniProt P04918 19-122, looked up)
Serum amyloid A-3 protein: QRWVQFMKEAGQGSRDMWRAYSDMKKANWKNSDKYFHARGNYDAARRGPGGAWAAKVISDAREAVQKFTGHGAEDSRADQFANEWGRSGKDPNHFRPAGLPKRY
On to B1, for which the “proliferation of AML cell lines” value in the data set with WEHI-3B [2] is “increased proliferation”. The “Ido1 expression in WEHI-3B cells” value in the data set on WEHI-3B cells is “upregulated Ido1 expression”.

B2: SAA1: recombinant human acute-phase protein serum amyloid A1 (Peprotech) (protein, UniProt P0DJI8 19-122, looked up)
Serum amyloid A-1 protein: RSFFSFLGEAFDGARDMWRAYSDMREANYIGSDKYFHARGNYDAAKRGPGGAWAAEVITDARENIQRFFGHGAEDSLADQAANEWGRSGKDPNHFRPAGLPEKY
B2: the “proliferation of AML cell lines” value in the data set with human AML cell lines is listed as “increased proliferation”. Moreover, in the data set with AML and MDS BM MNCs, the “IDO1 mRNA levels in patient-derived BM MNCs” value is “increased”; the “proliferation of lineage-depleted AML and MDS BM MNCs” value was “promoted proliferation”. In addition, in data set [3], the “proliferation of human cells from CD34+ healthy-injected mice” value is “unresponsive”. The “proliferation of patient-derived cells from AML-injected mice” value in [3] (versus vehicle) is given as “high proliferative activity”. The “CYP1A1 and CYP1A2 gene expression” value in data set [3] (PDX-AML versus CD34+ healthy-injected mice) was “only upregulated in response to SAA1 in the human BM cells isolated from the PDX-AML”. The IDO1 expression entry in [3] (PDX-AML versus PDX healthy cells) is listed as “only upregulated in response to SAA1 in the PDX-AML isolated human cells”. Besides, in the data set on OCI-AML3 cells, the “IDO1 expression in OCI-AML3 leukemic cells” value was “able to upregulate IDO1 expression”. For the same molecule, in the data set on WEHI-3B cells, the “Ido1 expression in WEHI-3B cells” value is given as “able to upregulate Ido1 expression”. In addition, the “% of Sub-G1 apoptotic cells” value in data set [4] (8-day treatment) is “reduced”. The “proliferative rate of leukemic blasts (Edu+ cells, S-phase)” value in [4] (SAA1 100 μg/kg i.v., 2- and 8-day treatments) is “maintained and prominent increase”. Also, in data set [4] (setting [6]), the G0-G1 cells entry is recorded as “decrease” and the G2-M phase entry is on record as “unvarying”. Moreover, in data set [4] (completion of the 8-day treatment), the “increase in AML burden in the BM” value came out at 1.5 fold. The “IDO1 expression across human AML cell lines and MDS-L” value in data set [5] (SAA1) is “observed across several human AML cell lines as well as the MDS-L cell line”. In addition, the “expression of AHR target genes” value in [5] (SAA1 1 μg/ml o/n) was “upregulated most of the main AHR targets genes”.
